Data reported in publication PMC9812318, “A dimer between monomers and hexamers—Oligomeric variations in glucosamine-6-phosphate deaminase family” (PLOS ONE, 2023).

B1: Glucosamine-6-phosphate deaminase (NagB) from Haemophilus influenzae (enzyme)
chain: not shown
notes: Glucosamine-6-phosphate deaminase (NagB), Haemophilus influenzae; Made from a Gateway recombinant plasmid; also called HiNagB; Hi-NagB; source: E. coli BL21(DE3)*, purified (Ni-NTA, SEC)
B2: Glucosamine-6-phosphate deaminase (NagB) from Pasteurella multocida (enzyme)
chain: not shown
notes: Glucosamine-6-phosphate deaminase (NagB), Pasteurella multocida; Made from a Gateway recombinant plasmid; also called PmNagB; Pm-NagB; source: E. coli BL21(DE3)*, purified (Ni-NTA, SEC)

Key:
[1] = target: the molecule itself; test: crystal structure; HiNagB crystals, P21, 12 monomers in the asymmetric unit, 3.0 Å; 2% Tacsimate pH 5.0, 0.1 M sodium citrate pH 5.6, 16% PEG 3350, 0.1 M strontium chloride, 18°C
[2] = target: the molecule itself; test: crystal structure; PmNagB crystals, P21, 4 monomers in the asymmetric unit, 2.3 Å; 100 mM sodium cacodylate/HCl pH 6.5, 200 mM MgCl2, 20% PEG 1000, 18°C; analysis of crystal packing

| Protein | stoichiometry N [1] | stoichiometry N [2] |
| --- | --- | --- |
| B1 | 6 |  |
| B2 |  | 2 |
